Measured values as given in patent publication US8821943B2, “Methods and compositions for targeted delivery of therapeutic agents” (Board of Regents of the University of Nebraska, priority 2006, dated 2014).

What was measured:
[1] = Particle size, polydispersity and zeta-potential by dynamic light scattering; format: physicochemical
Description: Nanoparticle carrier particles were formed by the methods of the preceding Example, and characterized as follows. The particle size and the zeta-potential were measured using Zeta Plus zeta-potential analyzer (Brookhaven Instruments Ltd., New York, N.Y.), which employs the dynamic light scattering technique for particle size measurement. The particle size and zeta-potential measurements were made after 1:1000 dilution of particle stock in filtered deionized water. Further, the particles were visualized using a transmission electron microscope (TEM). The carbon-coated grids were floated on a suspension droplet of plain or functionalized nanoparticles on a flexible plastic film (Parafilm, Pechiney Plastic Packaging, Neenah, Wis.) to allow the adsorption of nanoparticles onto the grid. After drying the particles, uranyl acetate was added as a negative stain to the carbon grid and allowed to react with the particles. This procedure makes the particles electron dense, allowing their visualization using an electron microscope. The particles were photographed using EM410 Phillips electron microscope (Eindhoven, The Netherlands) set at 60 kV and a magnification of 153000×.
Characterization of particles: The particle size and the zeta-potential were measured using ZetaPlus® zeta-potential analyzer, Brookhaven Instruments Ltd. (New York, N.Y.), which employs the dynamic light scattering technique for particle size measurement. The particle size and zeta-potential measurements were carried out after 1:1000 dilution of particle stock in filtered deionized water before lyophilization in filtered deionized water. The effective diameter of conjugated nanoparticles was higher than that of unconjugated nanoparticles.
Particle Size Analysis: Particle size and zeta-potential of the nanoparticles before and after conjugation following lyophilization were measured in double distilled water (100 μl of particle/1 ml of water) using dynamic light scattering (DLS). After lyophilization the plasmid loaded particles were weighed (1 mg) into glass Kimble tubes. To each tube, 1 ml of double distilled water was added and vortexed at high speed (Vortex Genie, Scientific Industries, Bohemia, N.Y.) till the particles were resuspended. The particle size and zeta potential was determined using dynamic light scattering after dilution (1:10 in double distilled water) (Brookhaven Instruments Corp., Holtsville, N.Y.). Nanoparticle size after lyophilization was 210.4±0.68 nm and zeta potential was −32.85±0.87 mV. Nanoparticle size and zeta potential was measured after conjugation with deslorelin and transferrin. Similarly, the unconjugated nanoparticles were also treated under the same conditions as with the conjugated nanoparticles (the conjugation protocol as mentioned above).
Transport studies were conducted in bovine nasal tissue. Bovine nasal tissue was obtained from freshly slaughtered cattle, and different regions (MTA, MTP, ITP) were prepared as described in Example 13. Nanoparticles coupled to deslorelin or transferring via aldehyde sulfate moieties were prepared as described in Example 3. The nanoparticle size was measured using a Zeta Plus Analyzer (Brookhaven Instruments Limited, UK). Particle size was analyzed before and after ligand conjugation in deionized filtered water.

ARPE-19 cells = assay: Nanoparticle uptake by human retinal pigment epithelial cells; format: cell-based; conditions: 1 ml of 100 μg/ml suspension in serum free medium
Description: A study was performed to examine the effect of targeting moieties on biodegradable and non-biodegradable carrier particles and their uptake in ocular cells. The biodegradable and non-biodegradable targeted carrier particles of the preceding Example were used. Uptake of nanoparticles by human retinal pigment epithelial cells (ARPE-19 cell line) was quantified by measuring fluorescence in cell lysate obtained after incubation of targeted or untargeted (unconjugated) nanoparticles with ARPE-19 cell monolayers.
ARPE-19 cells were obtained from American Type Culture Collection (ATCC, Manassas, Va.). The cells were maintained in culture according to supplier's recommendation. All studies were conducted using confluent cells of passages 20-30. Dulbecco's modified Eagle's medium (DMEM-F/12), fetal bovine serum, penicillin-streptomycin and L-glutamine were obtained from Gibco-BRL (Invitrogen Inc., Carlsbad, Calif.). Cell culture flasks (T-75 cm^2) and plates were purchased from Corning Inc., (Corning, N.Y.). To investigate the uptake of particles, ARPE-19 cells between 20-30 passages were cultured in 24-well plates until confluency. […] Fluorescence intensity of the cell lysates was determined at an excitation and emission wavelength of 505 and 515 nm, respectively, for FluoSpheres®. […]

Question: Which Zeta potential ([1]; Table 2, polystyrene nanoparticles) does the source give for “Transferrin-AS: transferrin-aldehyde sulphate-conjugated polystyrene nanoparticles” here?
Answer: −20.62 ± 0.82 mV

Question: What about the “Measured Diameter” value ([1]; Table 2, polystyrene nanoparticles, 1:1000 dilution in filtered deionized water, includes hydrodynamic layer, n = 3) of the same substance?
Answer: 67.5 ± 1.0 nm

Question: And the Zeta potential ([1]; Table 6)?
Answer: −20.62 ± 0.82 mV

Question: And the Effective diameter ([1]; Table 6, 1:1000 dilution in filtered deionized water)?
Answer: 67.5 ± 1.0 nm

Question: And the “percentage uptake at 3 h by ARPE-19 cells” value (ARPE-19 cells)?
Answer: 12.2±0.26%
